Assay results reported in patent publication US20160137696A1 (Bristol-Myers Squibb, published 2016).
Starred links: 1 amine or outer side, 2 acyl side, 3 side chain; linkers in the order of their positions; H or OH if unused. Positions of bridges follow the written chain, without caps; N, C: chain ends. Non-standard residues stand in square brackets, D forms with d. Groups on a side chain read outwards from the residue. Primed or numbered codes have the meaning given here. No end group written: not given here. *: point of attachment. PEG8′ = PEG8 unit (23-azido-3,6,9,12,15,18,21-heptaoxatricosyl, i.e. an eight-unit PEG spacer) linking the triazole to vitamin E succinate; Pra′ = propargylglycine (built in as LPH), clicked to a 1-substituted triazol-4-yl-alanine, O=C([C@H](Cc1cn([*:3])nn1)N[*:1])[*:2]; X1 = (S)‑3‑carboxy‑3‑(15-carboxypentadecanoylamino)propyl, O=C(O)CCCCCCCCCCCCCCC(=O)N[C@@H](CC*)C(=O)O; Pra″ = its azide, alkyne or alkene has reacted where a group follows in round brackets; X2 = (S)‑3‑carboxy‑3‑palmitamidopropyl, CCCCCCCCCCCCCCCC(=O)N[C@@H](CC*)C(=O)O; Phe(4-OMe)″ = p-methoxyphenylalanine, COc1ccc(C[C@H](N[*:1])C(=O)[*:2])cc1; Pra(3) = propargylglycine, clicked to an azide to give a triazolyl-alanine; triazole = 1,2,3-triazole formed by click of the Pra alkyne with the azide; Trp(1-CH2CO) = O=C([C@H](Cc1cn(CC(=O)[*:3])c2ccccc12)N[*:1])[*:2]; Tyr(Me) = O-methyl-tyrosine, COc1ccc(C[C@H](N[*:1])C(=O)[*:2])cc1; C18 diacid = O=C(O)CCCCCCCCCCCCCCCCC(=O)*; Phe(4-F) = N[C@@H](Cc1ccc(F)cc1)C(=O)O; γGlu = O=C(O)[C@H](CCC(=O)[*:2])N[*:1]; Hyp = O=C(O)[C@@H]1C[C@@H](O)CN1; NMeF = CN[C@@H](Cc1ccccc1)C(=O)O; F3Phe = trifluoro-phenylalanine; dHyp = O=C(O)[C@H]1C[C@H](O)CN1; NMeNle = CCCC[C@H](NC)C(=O)O; Suc = O=C(CCC(=O)[*:2])[*:1]; triazole″ = not defined here; Pip = O=C(O)[C@@H]1CCCCN1; NMeA = CN[C@@H](C)C(=O)O; Pra = C#CC[C@H](N)C(=O)O; Dab = NCC[C@H](N)C(=O)O; Dap = NC[C@H](N)C(=O)O

B1: INT-1300V (peptide)
peptide: {CH2CO}-Y[NMeA]NP[Dap]L[Hyp]W[Dab][Trp(1-CH2CO)][NMeNle][NMeNle]LCG[Pra]-OH
modifications: thioether N-14
SMILES: C#CC[C@H](NC(=O)CNC(=O)[C@@H]1CSCC(=O)N[C@@H](Cc2ccc(O)cc2)C(=O)N(C)[C@@H](C)C(=O)N[C@@H](CC(N)=O)C(=O)N2CCC[C@H]2C(=O)N[C@@H](CN)C(=O)N[C@@H](CC(C)C)C(=O)N2C[C@H](O)C[C@H]2C(=O)N[C@@H](Cc2c[nH]c3ccccc23)C(=O)N[C@@H](CCN)C(=O)N[C@@H](Cc2cn(CC(=O)O)c3ccccc23)C(=O)N(C)[C@@H](CCCC)C(=O)N(C)[C@@H](CCCC)C(=O)N[C@@H](CC(C)C)C(=O)N1)C(=O)O
B2: Example 14082 (peptide)
peptide: YADPHKPWKWXXECGX
modifications: as m115 (INT 1400J); Pra triazole-linked to vitamin E succinate 5-azidopentylamide
B3: Example 14124 (peptide)
peptide: {CH2CO}-F[Pip]DP[Dap]L[Hyp]W[Dab]W[NMeNle][NMeNle]LCGD
modifications: thioether N-14; not fully specified (residues 1, 10, 16, C-terminus); also: residue 1 written Tyr(4-F)
B4: INT-130AA (peptide)
peptide: {CH2CO}-Y[NMeA]NP[Dap]L[Hyp]W[Dab][Trp(1-CH2CO)][NMeNle][NMeNle]LCGG[Pra]-OH
modifications: thioether N-14
SMILES: C#CC[C@H](NC(=O)CNC(=O)CNC(=O)[C@@H]1CSCC(=O)N[C@@H](Cc2ccc(O)cc2)C(=O)N(C)[C@@H](C)C(=O)N[C@@H](CC(N)=O)C(=O)N2CCC[C@H]2C(=O)N[C@@H](CN)C(=O)N[C@@H](CC(C)C)C(=O)N2C[C@H](O)C[C@H]2C(=O)N[C@@H](Cc2c[nH]c3ccccc23)C(=O)N[C@@H](CCN)C(=O)N[C@@H](Cc2cn(CC(=O)O)c3ccccc23)C(=O)N(C)[C@@H](CCCC)C(=O)N(C)[C@@H](CCCC)C(=O)N[C@@H](CC(C)C)C(=O)N1)C(=O)O
notes: also called Intermediate 130AA
B5: INT-1400L (peptide)
peptide: {CH2CO}-[F3Phe][NMeF][NMeNle][dHyp]DV[NMeF]D[dP]WYLCG[Pra]
modifications: thioether N-13; not fully specified (C-terminus); printed as ClAc-F3Phe-mPhe-mNle-dHyp-Asp-Val-mPhe-Asp-dPro-Trp-Tyr-Leu-Cys-Gly-[(S)-propargylglycine]
notes: also called Intermediate 1400L
B6: INT-130AD (peptide)
peptide: {CH2CO}-Y[NMeA]NP[Dap]L[Hyp]W[Dab][Trp(1-CH2CO)][NMeNle][NMeNle]ECG[Pra]-OH
modifications: thioether N-14
SMILES: C#CC[C@H](NC(=O)CNC(=O)[C@@H]1CSCC(=O)N[C@@H](Cc2ccc(O)cc2)C(=O)N(C)[C@@H](C)C(=O)N[C@@H](CC(N)=O)C(=O)N2CCC[C@H]2C(=O)N[C@@H](CN)C(=O)N[C@@H](CC(C)C)C(=O)N2C[C@H](O)C[C@H]2C(=O)N[C@@H](Cc2c[nH]c3ccccc23)C(=O)N[C@@H](CCN)C(=O)N[C@@H](Cc2cn(CC(=O)O)c3ccccc23)C(=O)N(C)[C@@H](CCCC)C(=O)N(C)[C@@H](CCCC)C(=O)N[C@@H](CCC(=O)O)C(=O)N1)C(=O)O
B7: INT-1400I (peptide)
peptide: {CH2CO}-Y[NMeA]NP[Dap]L[Hyp]WS[Trp(1-CH2CO)][NMeNle][NMeNle]ECG[Pra]
modifications: thioether N-14; not fully specified (C-terminus); printed as ClAc-Tyr-mAla-Asn-Pro-Dap-Leu-Hyp-Trp-Ser-Trp(1-carboxymethyl)-mNle-mNle-E-Cys-Gly-[(S)-propargylglycine], cyclised ClAc-Cys
notes: also called Intermediate 1400I
B8: Example 14085 (peptide)
peptide: YADPHKPWKWXXECGX
modifications: as m102 (INT 1300Y); Pra triazole-linked to vitamin E succinate 5-azidopentylamide
B9: INT-130AE (peptide)
peptide: {CH2CO}-Y[NMeA]DP[Dap]L[Hyp]W[Dab][Trp(1-CH2CO)][NMeNle][NMeNle]ECG[Pra]-OH
modifications: thioether N-14
SMILES: C#CC[C@H](NC(=O)CNC(=O)[C@@H]1CSCC(=O)N[C@@H](Cc2ccc(O)cc2)C(=O)N(C)[C@@H](C)C(=O)N[C@@H](CC(=O)O)C(=O)N2CCC[C@H]2C(=O)N[C@@H](CN)C(=O)N[C@@H](CC(C)C)C(=O)N2C[C@H](O)C[C@H]2C(=O)N[C@@H](Cc2c[nH]c3ccccc23)C(=O)N[C@@H](CCN)C(=O)N[C@@H](Cc2cn(CC(=O)O)c3ccccc23)C(=O)N(C)[C@@H](CCCC)C(=O)N(C)[C@@H](CCCC)C(=O)N[C@@H](CCC(=O)O)C(=O)N1)C(=O)O
B10: Example 14086 (peptide)
peptide: YADPHKPWKWXXECGXD
modifications: as m110 (INT 1400E); Pra triazole-linked to vitamin E succinate 5-azidopentylamide
B11: INT-1300W (peptide)
peptide: {CH2CO}-Y[NMeA]NP[Dap]L[Hyp]W[Dab][Trp(1-CH2CO)][NMeNle][NMeNle]LCG[Pra]
modifications: thioether N-14; not fully specified; printed as ClAc-Tyr-[N-Me]Ala-Asn-Pro-Dap-Leu-Hyp-Trp-Dab-Trp(1-carboxymethyl)-[N-Me]Nle-[N-Me]Nle-Leu-Cys-Gly-[(S)-propargylglycine]

Biological target: T1, Recombinant Human PD-L1-TVMV-His (human, UniProt Q9NZQ7 19-239)
T1 construct: expressed in HEK293T cells; also called PD-L1-His; hPD-L1(19-239)-TVMV-His
Experiment: HTRF vs PD-1-Ig; B = IC50 0.01-0.099 µM
Description: Homogenous Time-Resolved Fluorescence (HTRF) Assays of Binding of Soluble PD-1 to Soluble PD-L1. Soluble PD-1 and soluble PD-L1 refers to proteins with carboxyl-end truncations that remove the transmembrane-spanning regions and are fused to heterologous sequences, specifically the Fc portion of the human immunoglobuling G sequence (Ig) or the hexahistidine epitope tag (His). All binding studies were performed in an HTRF assay buffer consisting of dPBS supplemented with 0.1% (w/v) bovine serum albumin and 0.05% (v/v) Tween-20. For the PD-1-Ig/PD-L1-His binding assay, inhibitors were pre-incubated with PD-L1-His (10 nM final) for 15 m in 4 μl of assay buffer, followed by addition of PD-1-Ig (20 nM final) in 1 μl of assay buffer and further incubation for 15 m. PD-L1 fusion proteins from either human, cynomologous macaques, mouse, or other species were used. HTRF detection was achieved using europium crypate-labeled anti-Ig monoclonal antibody (1 nM final) and allophycocyanin (APC) labeled anti-His monoclonal antibody (20 nM final). Antibodies were diluted in HTRF detection buffer and 5 μl was dispensed on top of binding reaction. The reaction was allowed to equilibrate for 30 minutes and signal (665 nm/620 nm ratio) was obtained using an EnVision fluorometer. Additional binding assays were established between PD-I-Ig/PD-L2-His (20 and 5 nM, respectively), CD80-His/PD-L1-Ig (100 and 10 nM, respectively) and CD80-His/CTLA4-Ig (10 and 5 nM, respectively). Binding/competition studies between biotinylated Compound No. 71 and human PD-L1-His were performed as follows. Macrocyclic peptide inhibitors were pre-incubated with PD-L1-His (10 nM final) for 60 minutes in 4 μl of assay buffer followed by addition of biotinylated Compound No. 71 (0.5 nM final) in 1 μl of assay buffer. Binding was allowed to equilibrate for 30 minutes followed by addition of europium crypated labeled Streptavidin (2.5 pM final) and APC-labeled anti-His (20 nM final) in 5 μl of HTRF buffer. The reaction was allowed to equilibrate for 30 m and signal (665 nm/620 nm ratio) was obtained using an EnVision fluorometer.

T1 sequence (Q9NZQ7 other isoform, or with tags, fused parts or gaps limits assumed): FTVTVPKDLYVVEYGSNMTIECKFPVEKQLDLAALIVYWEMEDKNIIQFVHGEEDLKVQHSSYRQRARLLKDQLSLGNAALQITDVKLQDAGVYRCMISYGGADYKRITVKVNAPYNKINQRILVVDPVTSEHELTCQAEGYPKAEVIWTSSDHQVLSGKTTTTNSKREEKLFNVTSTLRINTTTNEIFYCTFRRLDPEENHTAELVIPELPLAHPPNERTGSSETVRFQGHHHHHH

IC50, 10 to 99 nM:
{CH2CO}-Y[Pip]NP[Dap]L[Hyp]W[Dab][Trp(1-CH2CO)][NMeNle][NMeNle]LCG[Dab]([γGlu-C18 diacid]) (thioether N-14 (inferred)) [Example 13149]
B1
{CH2CO}-[Phe(4-OMe)″][Pip]NPHL[Hyp]W[Dab][Trp(1-CH2CO)][NMeNle][NMeNle]LCG[Dab]([γGlu-C18 diacid]) (thioether N-14 (inferred)) [Example 13151]
B2
B3
B4
{CH2CO}-[Phe(4-F)][Pip]DP[Dap]L[Hyp]W[Dab][Trp(1-CH2CO)][NMeNle][NMeNle]LCG[Pra″]([triazole-(S)‑18‑((3-azido-1-carboxypropyl)amino)‑18‑oxooctadecanoic acid]) (thioether N-14; also: residue 1 written Tyr(4-F)) [Example 14122]
B5
B6
{CH2CO}-[Tyr(Me)][Pip]DP[Dap]Q[Hyp]W[Dab][Trp(1-CH2CO)][NMeNle][NMeNle]ECG[Pra″]([triazole-(S)‑18‑((3-azido-1-carboxypropyl)amino)‑18‑oxooctadecanoic acid]) (thioether N-14) [Example 14121]
{CH2CO}-Y[NMeA]NP[Dap]L[Hyp]WS[Trp(1-CH2CO)][NMeNle][NMeNle]LCG[Pra] (thioether N-14, also called Intermediate 1300X) [INT-1300X]
{CH2CO}-Y[NMeA]NP[Dap]L[Hyp]WS[Trp(1-CH2CO)][NMeNle][NMeNle]ECG[Pra′]([triazole-X1]) (thioether N-14) [Example 14070]
B7
B8
B9
{CH2CO}-Y[NMeA]DPHK[Hyp]WKW[NMeNle][NMeNle]ECG[Pra(3)]([triazole″-X2])D (thioether N-14; reading uncertain) [Example 14061]
{CH2CO}-Y[NMeA]DPHK[Hyp]WKW[NMeNle][NMeNle]ECG[Pra′]([triazole-X1])D (thioether N-14) [Example 14065]
B10
{CH2CO}-Y[NMeA]DPHK[Hyp]WK[Trp(1-CH2CO)][NMeNle][NMeNle]ECG[Pra′]([triazole-X1])D (thioether N-14) [Example 14071]
{CH2CO}-Y[NMeA]DPHK[Hyp]WKW[NMeNle][NMeNle]ECG[Pra″]([triazole″-PEG8′-Suc-vitamin E])G (thioether N-14; reading uncertain) [Example 14052]
B11
